This series deals with the molecule itself. Put plainly: cross-linking.

B1: RVFV MP12 nucleocapsid protein (N), wild type, N-terminal 6His-tag (p14-N) (natural protein)
chain: MDNYQELRVQFAAQAVDRNEIEQWVREFAYQGFDARRVIELLKQYGGADWEKDAKKMIVLALTRGNKPRRMMMKMSKEGKATVEALINKYKLKEGNPSRDELTLSRVAAALAGWTCQALVVLSEWLPVTGTTMDGLSPAYPRHMMHPSFAGMVDPSLPGDYLRAILDAHSLYLLQFSRVINPNLRGRTKEEVAATFTQPMNAAVNSNFISHEKRREFLKAFGLVDSNGKPSAAVMAAAQAYKTAA
For the protein B1, the binding result is listed as “binds”.

B2: RVFV MP12 N protein delN1-14, N-terminal 6His-tag (p14-N) (domain or fragment)
chain: AVDRNEIEQWVREFAYQGFDARRVIELLKQYGGADWEKDAKKMIVLALTRGNKPRRMMMKMSKEGKATVEALINKYKLKEGNPSRDELTLSRVAAALAGWTCQALVVLSEWLPVTGTTMDGLSPAYPRHMMHPSFAGMVDPSLPGDYLRAILDAHSLYLLQFSRVINPNLRGRTKEEVAATFTQPMNAAVNSNFISHEKRREFLKAFGLVDSNGKPSAAVMAAAQAYKTAA
For the protein B2, the binding result is “binds”.

The values above are taken from publication PMC5764413 (PLoS Neglected Tropical Diseases, 2017).
